# From the supplement of paper PMC7877785
# ± gives the uncertainty stated by the source.
# Test: self-splicing fitness, log relative to wild type (ln ratio); higher = more splicing; Tetrahymena group I intron in knt gene, E. coli kanamycin selection, DiMSum; sequences stand for … in CUCUCU…GGAGGGAAAAGUUAUCAGGCAUGCACCUGGUAGCUAGUCUUUAAACCAAUAGAUUGCAUCGGUUUAAAAGGCAAGACCGUCAAAUUGCGGGAAAGGGGUCAACAGCCGUUCAGUACCAAGUCUCAGGGGAAACUUUGAGAUGGCCUUGCAAAGGGUAUGGUAAUAAGCUGACGGACAUGGUCCUAACCACGCAGCCAAGUCCUAAGUCAACAGAUCUUCUGUUGAUAUGGAUGCAGUUCACAGACUAAAUGUCGGUCGGGGAAGAUGUAUUCUUCUCAUAAGAUAUAGUCGGACCUCUCCUUAAUGGGAGCUAGCGGAUGAAGUGAUGCAACACUGGAGCCGCUGGGAACUAAUUUGUAUGCGAAAGUAUAUUGAUUAGUUUUGGAGUACUCGUGGUCG
# In short: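 DiMSum derived fitness as the error-weighted combination of fold changes across replicates, kanamycin versus no kanamycin, normalised to wild type. E. coli BL21(DE3) held the library, which randomised all eight P1ex-region intron nucleotides within the knt kanamycin-resistance gene on pET-22b(+). Six replicate transformations grew overnight at 37°C or 30°C on LB agar with or without 25 μg/mL kanamycin, also containing 100 μg/mL carbenicillin, 50 μM IPTG and 0.2% rhamnose, and pooled colonies were amplicon-sequenced on an Illumina HiSeq 2500.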
Sequence,self-splicing fitness (ln) (30 °C),self-splicing fitness (ln) (37 °C)
CGGUAGCAAUAUUACGUGCU,-3.24 ± 0.28,-2.51 ± 0.29
CGUAAGCAAUAUUACGACAU,-3.255 ± 0.022,-1.8 ± 0.035
CGUAAGCAAUAUUACGAGGU,-3.63 ± 0.46,-1.71 ± 0.29
CGUAAGCAAUAUUACGAUGG,-1.37 ± 0.097,-0.574 ± 0.13
CGUAAGCAAUAUUACGAUGU,,-1.57 ± 0.16
CGUAAGCAAUAUUACGAUUC,-3 ± 0.13,-2.52 ± 0.16
CGUAAGCAAUAUUACGCAGC,,-2.3 ± 0.39
CGUAAGCAAUAUUACGCCAA,-3.24 ± 0.33,-1.91 ± 0.4
CGUAAGCAAUAUUACGCUCA,-1.2 ± 0.2,-0.106 ± 0.18
CGUAAGCAAUAUUACGCUGC,,-2.3 ± 0.39
CGUAAGCAAUAUUACGGACG,-2.45 ± 0.12,-1.89 ± 0.14
CGUAAGCAAUAUUACGGAUC,-3.4 ± 0.23,-3.44 ± 0.37
CGUAAGCAAUAUUACGGCCA,-2.86 ± 0.42,-1.74 ± 0.21
CGUAAGCAAUAUUACGGGAU,-3.63 ± 0.18,-3.29 ± 0.35
CGUAAGCAAUAUUACGGGUC,-4.24 ± 0.28,-2.45 ± 0.2
CGUAAGCAAUAUUACGGGUG,-1.64 ± 0.057,-0.924 ± 0.057
CGUAAGCAAUAUUACGUAUC,-3.12 ± 0.24,-3.6 ± 0.24
CGUAAGCAAUAUUACGUCUG,-0.285 ± 0.085,0.29 ± 0.1
CGUAAGCAAUAUUACGUUAC,-3.56 ± 0.26,-2.03 ± 0.28
CGUAAGCAAUAUUACGUUCA,-1.64 ± 0.14,-0.74 ± 0.13
CGUAAGCAAUAUUACGUUCU,-1.61 ± 0.13,-0.0321 ± 0.12
CGUCAGCAAUAUUACGAACC,-1.37 ± 0.41,0.157 ± 0.37
CGUCAGCAAUAUUACGAAGU,-3.92 ± 0.19,-2.94 ± 0.21
CGUCAGCAAUAUUACGAGAG,-2.91 ± 0.15,-2.76 ± 0.25
CGUCAGCAAUAUUACGCAGU,-2.96 ± 0.2,-2.12 ± 0.18

Sequence,self-splicing fitness (ln) (30 °C),self-splicing fitness (ln) (37 °C)
CGUCAGCAAUAUUACGCAUA,-2.88 ± 0.32,-2.59 ± 0.19
CGUCAGCAAUAUUACGCCUU,,-1.94 ± 0.2
CGUCAGCAAUAUUACGCGAA,-2.93 ± 0.21,-2.51 ± 0.19
CGUCAGCAAUAUUACGCGGG,-3.87 ± 0.24,-2.94 ± 0.21
CGUCAGCAAUAUUACGCUGC,-2.95 ± 0.26,-2.22 ± 0.35
CGUCAGCAAUAUUACGCUGU,-4.26 ± 0.33,-1.51 ± 0.27
CGUCAGCAAUAUUACGGAAA,-2.57 ± 0.3,-2.38 ± 0.37
CGUCAGCAAUAUUACGGACG,-3.63 ± 0.32,-1.95 ± 0.23
CGUCAGCAAUAUUACGGAUA,-1.02 ± 0.079,-0.231 ± 0.086
CGUCAGCAAUAUUACGGCCG,-0.623 ± 0.12,0.482 ± 0.15
CGUCAGCAAUAUUACGUAUU,-2.83 ± 0.13,-1.84 ± 0.14
CGUCAGCAAUAUUACGUCCA,-1.97 ± 0.085,-1.36 ± 0.11
CGUCAGCAAUAUUACGUCUC,-2.87 ± 0.24,-0.999 ± 0.14
CGUCAGCAAUAUUACGUCUG,-0.234 ± 0.062,0.106 ± 0.08
CGUCAGCAAUAUUACGUGAC,-3.29 ± 0.18,-2.82 ± 0.23
CGUCAGCAAUAUUACGUGGA,-3.65 ± 0.24,-0.946 ± 0.17
CGUCAGCAAUAUUACGUGGG,-2.31 ± 0.093,-1.7 ± 0.1
CGUCAGCAAUAUUACGUUAC,-2.78 ± 0.21,-3.22 ± 0.24
CGUCAGCAAUAUUACGUUUC,-3 ± 0.14,-3.06 ± 0.21
CGUGAGCAAUAUUACGAAAC,,-0.708 ± 0.31
CGUGAGCAAUAUUACGAAAG,-1.89 ± 0.17,-0.94 ± 0.16
CGUGAGCAAUAUUACGAAGG,-2.37 ± 0.14,-1.42 ± 0.14
CGUGAGCAAUAUUACGAUCA,-2.06 ± 0.14,-0.309 ± 0.12
CGUGAGCAAUAUUACGCGCA,-0.962 ± 0.38,-0.382 ± 0.27
